Data on ten molecules can be found in paper PMC4335062, “Data-Driven Prediction and Design of bZIP Coiled-Coil Interactions” (PLoS Computational Biology, 2015).

For orientation: Kd means the equilibrium constant for the complex coming apart.

Read-outs that look alike come from different tables or passages of the source. Where no end group is shown, it is not given here. Where only a bound is given, the exact number is not on record here.

One test concerns the target T1, XBP1 (Homo sapiens, UniProt P17861).
T1 construct: made in house
T1 sequence (P17861 70-133 limits assumed): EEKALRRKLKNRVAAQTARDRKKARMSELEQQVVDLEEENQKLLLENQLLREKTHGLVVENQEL
In words: Direct-binding FRET assay. Particulars: C-terminal rhodamine design. The procedure:
(§1) The direct binding assay was performed manually in 384-well plates and is similar to a previously described assay. Wells were filled with 20 μL of 1 mM TCEP-HCl. A 4 μM stock of acceptor protein was made fresh in 1 mM TCEP-HCl, and 20 μL was titrated in 2-fold dilutions over the wells. […] The direct-binding FRET data were fit as previously described. Briefly, the Kd of the designed peptide homodimer was experimentally determined and used with previously determined target homodimer Kd values to determine the heterodimer Kd. The homodimer Kd values used for the human bZIPs were from; experiments done by […] et al. used the same protein constructs for the human bZIP proteins, the same buffer conditions, and the same assay. The fitting used a system of ordinary differential equations to describe the concentrations of homo and heterodimers formed by the donor (D) and acceptor (A) as a function of the heterodimer Kd. MATLAB was used to simulate the binding experiment for different Kd values, and the value that gave the best agreement between simulation and experiment was assigned. A minimum 15% change in the donor fluorescence upon titrating the acceptor peptide from 0 to 1000 nM was required for a fit to be attempted. If this minimum was not met, the interaction was classified as “NS” for no signal change. […] For such curves, we removed the first five points and re-fit the data.

The next test concerns the target T2, ATF3 (Homo sapiens, UniProt P18847).
T2 construct: made in house
T2 sequence (P18847 86-149 limits assumed): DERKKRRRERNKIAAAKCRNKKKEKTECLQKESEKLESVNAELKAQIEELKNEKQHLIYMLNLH
The test can be described thus: Direct-binding FRET assay. To be noted: C-terminal rhodamine design, mean or single, read-out: Kd. The procedure: as §1

The target in a further test is JUN (Homo sapiens, UniProt P05412). The test can be described thus: Direct-binding FRET assay. Also noted: made in house. Particulars: 37°C; C-terminal rhodamine design; mean or single; read-out: Kd. The procedure: as §1
Another test concerns the target XBP1 bZIP (Homo sapiens) (UniProt P17861). Particulars: cited from earlier work.
The target of test [1] is T3, Activating Transcription Factor 4 (ATF4) bZIP construct, C-terminally fluoresceinated (human, UniProt P18848 278-351, fluorescein at the C-terminus).
T3 construct: source: previously described, donated by A.W. Reinke [18]
T3 sequence (looked up): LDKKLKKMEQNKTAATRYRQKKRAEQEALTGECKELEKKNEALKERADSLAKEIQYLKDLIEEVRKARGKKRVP
In words: FRET or BRET; direct-binding FRET at 37°C; 10 nM fluorescein-labelled bZIP (donor), rhodamine-labelled design (acceptor) titrated 0 to 1 μM; 150 mM KCl, 50 mM potassium phosphate pH 7.4, 0.1% Tween-20, 0.1% BSA. Particulars: both partners purified. In general terms: Bioluminescence resonance energy transfer reports proximity on the nanometre scale.

Test [2] concerns the target BATF2 bZIP, C-terminally fluoresceinated (human) (UniProt Q8N1L9). In words: FRET or BRET; direct-binding FRET at 4°C; 10 nM fluorescein-labelled bZIP (donor), rhodamine-labelled design (acceptor) titrated 0 to 1 μM; 150 mM KCl, 50 mM potassium phosphate pH 7.4, 0.1% Tween-20, 0.1% BSA.
Test [3] concerns the target partner bZIP coiled coil (Protein2). To be noted: cited from earlier work. The procedure:
Supplement pcbi.1004046.s020.csv, table | column: Kd || Fig 4 Designed bZIP-binding peptides inhibit interactions of native bZIP dimers. […] The dissociation constants at the indicated temperatures are Kd ≤ 1 nM for FOS-JUN, Kd ≤1 nM for XBP1-CREBZF, and Kd = 60 nM for ATF4-FOS, according to [18]. Fluorescence intensities were measured at both 37°C and 23°C, a ...

BATF2 bZIP, C-terminally fluoresceinated (human), sequence (Q8N1L9 whole entry): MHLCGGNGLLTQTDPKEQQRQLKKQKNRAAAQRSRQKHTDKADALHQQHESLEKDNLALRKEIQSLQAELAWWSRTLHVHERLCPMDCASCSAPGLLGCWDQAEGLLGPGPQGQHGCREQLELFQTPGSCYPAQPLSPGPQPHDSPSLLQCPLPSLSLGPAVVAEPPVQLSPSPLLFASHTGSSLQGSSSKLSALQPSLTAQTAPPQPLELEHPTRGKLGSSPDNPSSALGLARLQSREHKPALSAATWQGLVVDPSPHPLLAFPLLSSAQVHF

Take “AETDQLENRVKDLKKKNESLKEEKRQASNKYKALLTNNRSLKVKA [XBP1-d2]”: the Kd on XBP1 (37°C, mean or single, read-out: Kd) was no less than 5 µM. The “binding to XBP1” value at XBP1 (4, 23 or 37°C) is given as “did not bind detectably”.
For “KDAASLENKKEELKVQNRILVDERKYLQMMNSELKDELAAHE [ATF3-d3]”, the Kd at ATF3 (4°C) is 117 nM; on ATF3 (37°C) it was no less than 5000 nM.
For the molecule “NDLARLENKAEELKVQNRILVDERKYLQREISELHDELAAHE [ATF3-d1]”, the Kd on ATF3 (37°C) is roughly 1000 nM.
Take “NLVAQLEKKNEALKAENAALEIERIQLQDKIEELKYELAAIE [ATF3-d2]”: at ATF3 (37°C), the Kd is 564 nM.
In the case of “QRALQLQKEKERLEKMNKKLAAEIESLLEERERLESVLNYHE [JUN-d2]”, the Kd at JUN came out at 1 nM.
Regarding XBP1 bZIP (from UniProt P17861), the Kd with XBP1 bZIP (Homo sapiens) is 8 nM.

B1: ATF5-d1, rhodamine-labelled at the C-terminus (designed binder)
chain: GESKEYKKGSGSKRIAYLRQRIAELRNENHVLESRIQRMEKEKDALQQDRDHLEYELGC(Rhodamine Red C2‑maleimide)
notes: solubility linker after the His tag; added at the C-terminus for labelling; source: E. coli RP3098, purified (Ni-NTA under denaturing conditions, reverse-phase HPLC)
In test [1], B1 gave an equilibrium dissociation constant (Kd) of 4.9 ± 1 nM. The same molecule returned an FRET efficiency in test [2] of 0.31.

B2: ATF5: native human bZIP coiled coil (protein)
chain: MSLLATLGLELDRALLPASGLGWLVDYGKLPPAPAPLAPYEVLGGALEGGLPVGGEPLAGDGFSDWMTERVDFTALLPLEPPLPPGTLPQPSPTPPDLEAMASLLKKELEQMEDFFLDAPPLPPPSPPPLPPPPLPPAPSLPLSLPSFDLPQPPVLDTLDLLAIYCRNEAGQEEVGMPPLPPPQQPPPPSPPQPSRLAPYPHPATTRGDRKQKKRDQNKSAALRYRQRKRAEGEALEGECQGLEARNRELKERAESVEREIQYVKDLLIEVYKARSQRTRSC
modifications: fluorescein at the C-terminus (FRET donor) or TAMRA (FRET acceptor), by assay
notes: native human bZIP coiled coil
Consider B2, for which the Kd is 27.8 nM in test [3] (Protein2 = CEBPE (HS), intra) and 551 nM in test [3] (Protein2 = CI20 (CI), inter).

B3: ATF5-d1, rhodamine-labelled at the N-terminus (designed binder)
chain: GESKEYKKGSGSC(Rhodamine Red C2‑maleimide)GKRIAYLRQRIAELRNENHVLESRIQRMEKEKDALQQDRDHLEYEL
B3 displayed an FRET efficiency in test [2] of 0.65.

B4: ATF2: native human bZIP coiled coil (protein)
chain: MKFKLHVNSARQYKDLWNMSDDKPFLCTAPGCGQRFTNEDHLAVHKHKHEMTLKFGPARNDSVIVADQTPTPTRFLKNCEEVGLFNELASPFENEFKKASEDDIKKMPLDLSPLATPIIRSKIEEPSVVETTHQDSPLPHPESTTSDEKEVPLAQTAQPTSAIVRPASLQVPNVLLTSSDSSVIIQQAVPSPTSSTVITQAPSSNRPIVPVPGPFPLLLHLPNGQTMPVAIPASITSSNVHVPAAVPLVRPVTMVPSVPGIPGPSSPQPVQSEAKMRLKAALTQQHPPVTNGDTVKGHGSGLVRTQSEESRPQSLQQPATSTTETPASPAHTTPQTQSTSGRRRRAANEDPDEKRRKFLERNRAAASRCRQKRKVWVQSLEKKAEDLSSLNGQLQSEVTLLRNEVAQLKQLLLAHKDCPVTAMQKKSGYHTADKDDSSEDISVPSSPHTEAIQHSSVSTSNGVSSTSKAEAVATSVLTQMADQSTEPALSQIVMAPSSQSQPSGS
modifications: fluorescein at the C-terminus (FRET donor) or TAMRA (FRET acceptor), by assay
notes: native human bZIP coiled coil
For the molecule B4, the Kd was 5000 nM in test [3] (Protein2 = ATF6 (HS), intra, 5000 assigned if Kd >5,000 nM or no binding) and 5000 nM in test [3] (Protein2 = CE20 (CE), inter, 5000 assigned if Kd >5,000 nM or no binding).
